Results from US20260153518.

How the values were obtained:
[1] = target: PJ-8 (positive control peptide)
[2] = target: PP-2b (positive control peptide)
[3] = target: candidate peptide No. 11 (hIFN-gamma positions 126-139), 5-carboxyfluorescein labelled
[4] = target: candidate peptide No. 15 (mIFN-gamma positions 128-141), 5-carboxyfluorescein labelled
[5] = target: candidate peptide No. 16 (mIFN-gamma positions 143-154), 5-carboxyfluorescein labelled
[6] = target: candidate peptide No. 17 (mCXCL-1 positions 1-14, Cys replaced with Ser), 5-carboxyfluorescein labelled
[7] = target: candidate peptide No. 19 (hCXCL-7 positions 76-89), 5-carboxyfluorescein labelled
[8] = target: candidate peptide No. 2 (hCCL-14 positions 61-74), 5-carboxyfluorescein labelled
[9] = target: candidate peptide No. 20 (hCXCL-3 positions 1-14, Cys replaced with Ser), 5-carboxyfluorescein labelled
[10] = target: candidate peptide No. 22 (hCXCL-5 positions 3-15, Cys replaced with Ser), 5-carboxyfluorescein labelled
[11] = target: candidate peptide No. 4 (hIFN-alpha-10 positions 150-161), 5-carboxyfluorescein labelled
[12] = target: candidate peptide No. 5 (hIFN-alpha-6 positions 154-165), 5-carboxyfluorescein labelled
[13] = target: candidate peptide No. 6 (hIFN-alpha-6 positions 150-161), 5-carboxyfluorescein labelled
[14] = target: candidate peptide No. 7 (hIFN-alpha-2 positions 154-165), 5-carboxyfluorescein labelled

B1: human MMP12 (matrix metalloproteinase 12), activated with APMA (protein)
chain: GPVWRKHYITYRINNYTPDMNREDVDYAIRKAFQVWSNVTPLKFSKINTGMADILVVFARGAHGDFHAFDGKGGILAHAFGPGSGIGGDAHFDEDEFWTTHSGGTNLFLTAVHEIGHSLGLGHSSDPKAVMFPTYKYVDINTFRLSADDIRGIQSLYGDPKENQRLPNPDNSEPALCDPNLSFDAVTTVGNKIFFFKDRFFWLKVSERPKTSVNLISSLWPTLPSGIEAAYEIEARNQVFLFKDDKYWLISNLRPEPNYPKSIHSFGFPNFVKKIDAAVFNPRFYRTYFFVDNQYWRYDERRQMMDPGYPKLITKNFQGIGPKIDAVFYSKNKYYYFFQGSNQFEYDFLLQRITKTLKSNSWFGC
In the case of B1, the “cleavage by MMP12 (UPLC)” value [1] is reported as “it was confirmed that the two positive controls were cleaved by MMP12 (data is not shown)”, the “cleavage by MMP12 (UPLC)” value [2] is reported as “it was confirmed that the two positive controls were cleaved by MMP12 (data is not shown)” and the Cleavage rate (%) [3] is reported as 100%. For the same protein, the Cleavage rate (%) [4] was 10.5%, the Cleavage rate (%) [5] was 61.7% and the Cleavage rate (%) [6] was 98.6%. The Cleavage rate (%) [7] was 26%, the Cleavage rate (%) [8] was 56% and the Cleavage rate (%) [9] was 100%. For the same protein, the Cleavage rate (%) [10] was 100%, the Cleavage rate (%) [11] was 53.5% and the Cleavage rate (%) [12] was 38.5%. For the same protein, the Cleavage rate (%) [13] was 90.3% and the Cleavage rate (%) [14] was 70.4%.
